In patent US20230183352A1:
Residue numbers refer to the chain shown, from its start.

B1: QP1166 (Fc fusion, not shown: a dimerising Fc or GST)
chain: QVQLVESGGDSVQPGGSLRLSCAASGFTYGTYAMSWFRQAPGKEREGVACIDIYGRTSYTDPVKGRFTISQDNAKNTLYLQMNSLKPEDTAMYYCAARDFGYCTASWVHEGFSRYWGQGTQVTVSS
B2: QP320 (Fc fusion, not shown: a dimerising Fc or GST)
chain: EVQLLESGGGLVQPGGSLRLSCAASGFTYGTYAMSWVRQAPGKGLEWVSCIDIYGRASYTDPVKGRFTISRDNSKNTLYLQMNSLRAEDTAVYYCAARDFGYCTASWVHEGFSRYWGQGTLVTVSS
B3: QP324 (Fc fusion, not shown: a dimerising Fc or GST)
chain: B2 chain with S49A, A57T, R71Q
B4: QP325 (Fc fusion, not shown: a dimerising Fc or GST)
chain: B2 chain with V37F, W47G, S49A, A57T, R71Q
B5: QP190191 (antibody, human IgG1, V domains shown)
VH: EVKLVESGGGLVKPGGSLKLSCAASGFTFSNYAMSWVRQTPEKRLEWVASIISGGRTYYLDSEKGRFTISRDNARNNLYLQMSSLRSEDTAMYYCTRIYYGNSFDYWGQGTTLTVSS
VL: DIVMTQSPSSQTVTAGEKVTMSCKSSQSLLNSGNQKNYLTWYQQKPGQPPKLLIYWASTRESGVPDRFTGSGSGTDFTLTISNMQAEDLAVYYCQNDYSYPFTFGSGTKLEIK
B6: QP192193 (antibody, human IgG1, V domains shown)
VH: QVQLQQSGAELVRPGSSVKISCKASGYAFSSYWMNWVKQRPGQGLEWIGQIYPGNGDTTYNGKFKGQATLTADKSSSTVYMQLSSLTSEDSAVYFCARFVKGNAMDYWGQGTSVTVSS
VL: B5 VL with Q11L, K45N, L52M, T75I, T78S, N83S, M84V, V91L, D97A
B7: QP201202 (antibody, human IgG1, V domains shown)
VH: EVQLQQSGPELVKPGASVKMSCKASGYTFTNYFVHWVKQKPGQGLEWIGYINPYNDDTKYNEKFKGKATLTSDKSSSTAYMDLSSLTSEDSAVYYCLSLRFFAYWGQGTLVTVSA
VL: B5 VL with Q11L, P49A, T69I, N83H, M84V, Y93F, F102L, S106A, K109N, I112L
B8: QP207208 (antibody, human IgG1, V domains shown)
VH: EVQLQQSGPELVKPGASVKMSCKASGYTFTSYIMHWVKQKPGQGLEWIGYINPYNDGTKYNEKFKGKATLTSDKSSSTVYMELSSLTSEDSAVYCCARLGFTTRNAMDYWGQGTSVTVSS
VL: B5 VL with Q11L, T12S, T14S, S22N, T40A, W56G, N83S, M84V, Y98H
B9: QP199200 (antibody, human IgG1, V domains shown)
VH: DVQLVESGGGLVQPGGSRKLSCAASGFTFSSFGMHWVRQAPEKGLEWVAYISSGSNSIYYVDTVKGRFTISRDNPKNTLFLQMTSLKSEDTAMYYCARNAYYGNSFDYWGQGTTLTVSS
VL: B5 VL with Q11L, D76V, N83S, M84V, Y93F, D97N, S99Y, F102L, S106A, I112L

Target: Biotin QP004.3 (biotin-PDL1-FC) (human) (UniProt Q9NZQ7)
Sequence (Q9NZQ7 19-238 limits assumed): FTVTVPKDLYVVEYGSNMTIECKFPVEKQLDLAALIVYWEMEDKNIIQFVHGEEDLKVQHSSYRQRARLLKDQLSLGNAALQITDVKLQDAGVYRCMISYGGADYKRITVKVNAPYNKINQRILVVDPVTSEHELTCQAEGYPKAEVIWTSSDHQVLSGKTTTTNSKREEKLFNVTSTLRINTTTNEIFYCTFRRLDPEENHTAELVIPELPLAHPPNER
Experiment: blocking ELISA, PD1-FC coated, biotin-PDL1-FC plus antibody; competitor PD1-FC

| ELISA reading at 0.0457 nM antibody | ELISA reading at 0.1372 nM antibody | ELISA reading at 0.4115 nM antibody | ELISA reading at 1.2346 nM antibody | ELISA reading at 3.7037 nM antibody | ELISA reading at 11.1111 nM antibody | ELISA reading at 33.3333 nM antibody | ELISA reading at 100.0000 nM antibody | Binder |
| --- | --- | --- | --- | --- | --- | --- | --- | --- |
| 1.16 | 1.24 | 1.06 | 1.13 | 1.06 | 0.508 | 0.239 | 0.167 | B1 |
| 1.21 | 1.3 | 1.47 | 1.08 | 1.11 | 1.12 | 1.02 | 0.793 | B2 |
| 1.29 | 1.06 | 0.901 | 0.879 | 0.895 | 0.753 | 0.737 | 0.661 | B3 |
| 1.08 | 1.02 | 0.975 | 0.995 | 1.03 | 0.513 | 0.238 | 0.156 | B4 |

Target: Claudin 18.1 (CLDN18.1), expressed on CHOS-CLDN18.1 cells (UniProt P56856)
Sequence (P56856 whole entry): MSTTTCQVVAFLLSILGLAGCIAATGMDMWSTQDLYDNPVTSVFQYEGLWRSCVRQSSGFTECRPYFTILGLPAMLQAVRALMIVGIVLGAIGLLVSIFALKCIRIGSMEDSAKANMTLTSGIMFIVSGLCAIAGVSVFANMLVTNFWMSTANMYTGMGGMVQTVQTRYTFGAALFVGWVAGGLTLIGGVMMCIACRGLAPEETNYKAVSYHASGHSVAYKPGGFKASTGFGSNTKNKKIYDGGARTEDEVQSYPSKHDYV
Experiment: FACS, CHOS-CLDN18.1 cells, 10 µg/ml

| MFI | Binder |
| --- | --- |
| 1060 | B5 |
| 1030 | B6 |
| 1150 | B7 |
| 1320 | B8 |
| 918 | B9 |

Target: Biotin QP004.3 (biotin-PDL1-FC) (human) (UniProt Q9NZQ7)
Experiment: binding ELISA, antibody coated, biotin-PDL1-FC titrated

| ELISA reading at 0.0007 µg/ml biotin-PDL1-FC | ELISA reading at 0.0021 µg/ml biotin-PDL1-FC | ELISA reading at 0.0062 µg/ml biotin-PDL1-FC | ELISA reading at 0.0185 µg/ml biotin-PDL1-FC | ELISA reading at 0.0556 µg/ml biotin-PDL1-FC | ELISA reading at 0.1667 µg/ml biotin-PDL1-FC | ELISA reading at 0.5000 µg/ml biotin-PDL1-FC | ELISA reading at 2.0000 µg/ml biotin-PDL1-FC | Binder |
| --- | --- | --- | --- | --- | --- | --- | --- | --- |
| 0.217 | 0.56 | 1.55 | 2.57 | 3.23 | 3.13 | 3.28 | 3.41 | B1 |
| 0.125 | 0.114 | 0.108 | 0.0792 | 0.0843 | 0.0957 | 0.142 | 0.23 | B2 |
| 0.192 | 0.141 | 0.15 | 0.107 | 0.0882 | 0.129 | 0.201 | 0.413 | B3 |
| 0.182 | 0.598 | 1.32 | 2.12 | 2.78 | 3.11 | 3.21 | 3.42 | B4 |
